Experimental data as given in the supplement of paper PMC9170038.

Tested on: MS2 coat protein
Assay: apparent KD of MS2 coat protein; designed switch direction (-1 OFF switch, 1 ON switch): -1; higher = weaker reporter binding
Procedure, shortened: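 RNA switches sharing common flanks were transcribed by stalled E. coli RNA polymerase on Illumina chips. A doubling series of SNAP-549-labelled MS2 coat protein, from 0.7 or 1.5 nM to 3 µM, was applied in Tris-HCl pH 7.5 buffer with KCl, MgCl2, BSA, DTT, tRNA and Tween-20. Each step lasted 0.8–1.5 h at the bottom of the series and 10–20 min at the top. Normalised cluster fluorescence was curve-fitted, giving apparent KD as the per-design median over clusters.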

[1] = Eterna round: R95, input ligand: microRNA oligo, concentration not stated
[2] = input ligand: microRNA oligo, concentration not stated
[3] = Eterna round: R95, input ligand: FMN 200 uM
[4] = Eterna round: R95, input ligand: none

Row | Sequence | apparent KD of MS2 coat protein [1] [nM] | apparent KD of MS2 coat protein (input ligand: FMN 200 uM) [nM] | apparent KD of MS2 coat protein (input ligand: none) [nM] | apparent KD of MS2 coat protein [2] [nM] | apparent KD of MS2 coat protein [3] [nM] | apparent KD of MS2 coat protein [4] [nM]
1 | GUGUACAGAGGAUAUGCACGAGUAGUUACGAAAGUAACUAUACAUGAGGAUCACCCAUGUAGAAGGCUGUACAC [Dot plot directed v3] (puzzle: Exclusion 2) | 12.2 | – | – | – | – | –
2 | UUCGAGGCAGGAUAUGCGUAGCCACGGAGGAUCACCAAGUAACAUGAGGAUCACCCAUGUAGAAGGGCUAGAGC [Eternabot (L1) Solution 26] (Eterna round: R97, puzzle: Exclusion 2) | – | 60.1 | 76.4 | – | – | –
3 | AAAGUGUUAGGAUAUAGGCGCAGCCAGACGCAGGAAGCGUCCUAGAAGGAACAUGAGGAUCACCCAUGUGGGCG [Eternabot (Original) Solution 41] (Eterna round: R97, puzzle: Exclusion 4) | – | 1180 | 364 | – | – | –
4 | AGCUGUGGCCGAGGAUAUUCAGCCUUAAAUACCGACGUAUAGUCGGACAUGAGGAUCACCCAUGUGGAGAAGGCGGUCUCAGCA [Eli eng2 - 046] (Eterna round: R96, puzzle: Exclusion NG 2) | – | 76.4 | 48.4 | 34.5 | – | –
5 | AUUGACUGAGGAUAUUGUACUGCUGACAUGAGGAUCACCCAUGUAUGUUAACUCGGCCGUCGAGAAGGCAGAAAUG [BotMod 21 - Jieux - Exclusion 5] (Eterna round: R97, puzzle: Exclusion 5) | – | 18.4 | 34.8 | – | – | –
6 | ACUCCUCCUGUUAGGAUAUGCAUCGGGCUUCCGCAGCAGAAGGAACAUGAGGAUCACCCAUGUCAAAUAAAAUC (Eterna round: R97, puzzle: Brourd's mod of Exclusion 4) | – | 243 | 26.3 | – | – | –
7 | AGCAUGUAAGGAUAUGCAACACAGCUUUCAAUCGCUGUGCCGCAGAAGGUACAUGAGGAUCACCCAUGUGCUCC [Anesonza] (puzzle: Exclusion 4) | 75.6 | – | – | – | – | –
8 | GCUGCACAUGUAGGAUAUCUGCACGAUUAGUGCAGAGAAGGACAUGAGGAUCACCCAUGUAGAUCAGCAGCAAUUAAUUUAAUU [ENG1/6-A1] (Eterna round: R96, puzzle: Exclusion NG 1) | – | 232 | 400 | 241 | – | –
9 | GGUUGACAUGAGGAUCACCCAUGUGAGGAUAUGCGAGAGAAAAAAGUGAGGAAGAAACGCAGAAGGCGCUGUCG [salish99-ex1_r3_010] (puzzle: Exclusion 1) | 163 | – | – | – | 59.3 | 133
10 | GGGUGUCCAGUGAGGAUAUCCAACGCUAAGGCGCAGGAGAAGGCACAUGAGGAUCACCCAUGUAGCUGAAGAAA [Onerbegeso] (puzzle: Brourd's mod of Exclusion 4) | 14.1 | – | – | – | 49.9 | 20
11 | CUGGUCCGAGGAUAUAUGAUGUGAAACAUGAGGAUCACCCAUGUAAUAUUAUGGAUGAAAAUAGAAGGCGGACUAG [Mat - Exclusion 5 - JL mod - D37] (puzzle: Exclusion 5) | 66.1 | – | – | – | 52.6 | 62.7
12 | AAAUACAAGUAAAGAUCCUACAUGAGGAUCACCCAUGUGCUCGUCUUGUAAAGUACUAUCACGAAAGUGAUAGUACU [Mat - Sensor v3 - turn-off var 1 - Eli Mod - D87] (puzzle: Sensor v3, turn-off variant 1) | 29.7 | – | – | – | 45.3 | 47.7
13 | CCAGGAAGGCAGGAUAUCCAAAGCCGUCCCGGCGGAGAAGGGCUGACUUGAGGAUCACCCAAGUGAUGCCUAAC [Aratquve] (Eterna round: R97, puzzle: Exclusion 6) | – | 15.2 | 14.8 | – | – | –
14 | GAAAAGGUAGGAUAUACGAAAAAAAAGGGUAGAAAAAAAACACAUGAGGAUCACCCAUGUAGAAGGACCAAAGG [salish99_ex2_r3_040] (puzzle: Exclusion 2) | 28.5 | – | – | – | 46.3 | 26
15 | GAAUCGCAUGUUAGGAUAUAUCUGUCGGAGUAUGGAUAGAAGGGACAUGAGGAUCACCCAUGUGAAGGCCGUUC [Eternabot (L1) Solution 58] (Eterna round: R97, puzzle: Brourd's mod of Exclusion 4) | – | 210 | 90.1 | – | – | –
16 | AAGGAUAGAGGAUAUACAUAGAUACAGAUUCAUGUAGUCCUACAUGAGGAUCACCCAUGUAGAAGGCUAUCCUA [Fiskers Ex 2 - 12] (puzzle: Exclusion 2) | 15.7 | – | – | – | – | –
17 | ACAUUCUGAGGAUAUGUGCGCACUGACAUGAGGAUCACCCAUGUCCGAAUGUCCGAGACGACAGAAGGCAGUGAAU [Eternabot (L2) Solution 72] (Eterna round: R97, puzzle: Exclusion 5) | – | 355 | 101 | – | – | –
18 | GUCAGCUCGUGAGGAUAUACAUGAGGAUCACCCAUGUGAUCAAUAGCAGCUUCGGCUGCAUACAUGUAGAAGGCACGAGCUGAC [ENG2/6-A1] (Eterna round: R96, puzzle: Exclusion NG 2) | – | 22.4 | 28.5 | 19.7 | – | –
19 | GCAUGGUGAGGAUAUGCAGAAGGGCAACGGUCAUCAUGACUACAUGAGGAUCACCCAUGUAGAAGGCACACAUG [Betearor] (puzzle: Exclusion 2) | 42.5 | – | – | – | – | –
20 | CGUGACUCAGGAUAUGUAUUAUAUCACAUGAGGAUCACCCAUGUCCAGCGAAAGCUGGAGGCAGAAGGGAGUCACG [Fiskers Ex 5 - 47] (puzzle: Exclusion 5) | 87.6 | – | – | – | 41.4 | 106
21 | UAUUUACAUGAGGAUCACCCAUGUCAGGAUAUGCGUCUAUCGUCGAAAGACGAUAGUCGCAGAAGGGACAAUAU [LRO-Excl01-22 mod derived from EliFisker 4.24] (Eterna round: R97, puzzle: Exclusion 1) | – | 100 | 48.9 | – | – | –
22 | GGGCCGGCCGGAGGAUAUGCGGCUUGGUUGGUCGGUGGGCCGGCCGGGACAUGAGGAUCACCCAUGUAGAAGGCUGGUUGGUUC [less GC, MS2 in another position, A 14%] (Eterna round: R96, puzzle: Exclusion NG 2) | – | 58.2 | 60.7 | 42.8 | – | –
23 | ACGGGUAAGUAAGGAUAUCCAACAGGCUGAUUUCAGUCUGAACAUGAGGAUCACCCAUGUGGGUGGGAGAAGGUACUCUCCCGC [Atbienarza] (Eterna round: R96, puzzle: Exclusion NG 2) | – | 107 | 114 | 86.3 | – | –
